Experimental data: publication PMC10850148

What was measured:
[1] = molecular target: AtSPL5 ZnF domain (residues 60-124) (UniProt Q9S758); test: ITC
AtGATA18 ZnF domain = AtGATA18 ZnF domain (UniProt Q8LC79); test: ITC
[2] = molecular target: AtSPL5 ZnF domain (residues 60-124) (Arabidopsis thaliana) (UniProt Q9S758); test: ITC
[3] = molecular target: AtGATA18 ZnF domain (Arabidopsis thaliana) (UniProt Q8LC79); test: ITC
[4] = molecular target: MqGATA triple mutant (Y-R, M-K, N-R) (Macrosteles quadrilineatus); test: ITC
[5] = molecular target: AtSPL5 ZnF domain (residues 60-124) (Arabidopsis thaliana) (UniProt Q9S758); test: ITC; MicroCal PEAQ-ITC, 16 °C, 20 mM Tris-HCl pH 7.5, 150 mM NaCl; 660-700 μM protein injected into 40-50 μM protein in the cell; SAP05 titrated to the transcription factor; one-site model
[6] = molecular target: AtGATA18 ZnF domain (Arabidopsis thaliana) (UniProt Q8LC79); test: as above
[7] = molecular target: T1, OY-M SAP05 (residues 33-135); test: ITC; conditions: chain shown with the change
T1 chain: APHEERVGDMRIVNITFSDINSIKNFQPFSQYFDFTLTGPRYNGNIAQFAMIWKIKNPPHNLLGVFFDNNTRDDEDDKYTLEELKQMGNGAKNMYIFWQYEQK

Molecule | Kd (AtGATA18 ZnF domain) [nM] | Kd [7] [nM] | further results
OY-M SAP05 (residues 33-135) E107A | 1300 | – | Kd [1]: 6300 nM
OY-M SAP05 (residues 33-135) D108A | 5400 | – | –
binary complex AtRPN10-SAP05 (from UniProt P55034 33-135; P55034 1-193) | – | – | Kd [2]: 370 nM; Kd [3]: 100 nM
OY-M SAP05 (residues 33-135) D106A | 4000 | – | –
OY-M SAP05 (residues 33-135) (domain or fragment) | – | – | Kd [4]: 900 nM; Kd [2]: 420 nM; Kd [3]: 140 nM
OY-M SAP05 (residues 33-135) I84A | > 100000 | – | –
WBDLa SAP05 double mutant M86I-K70T (natural protein) | – | – | Kd [5]: 2600 nM; Kd [6]: 2700 nM
OY-M SAP05 E107A (domain or fragment) | – | – | fold decrease of binding affinity against wild-type SAP05 [5]: 15 fold
AtGATA18 ZnF domain, Q8LC79 R182A (protein) GDSLLARRCANCDTTSTPLWRNGPRGPKSLCNACGIAFKKEERRTTAATGNT | – | 4400 | –
AtGATA18 ZnF domain, Q8LC79 R188A (protein) GDSLLARRCANCDTTSTPLWRNGPRGPKSLCNACGIRFKKEEARTTAATGNT | – | 500 | –
AtGATA18 ZnF domain, Q8LC79 K185A (protein) GDSLLARRCANCDTTSTPLWRNGPRGPKSLCNACGIRFKAEERRTTAATGNT | – | 580 | –
AtGATA18 ZnF domain, Q8LC79 I181A (protein) GDSLLARRCANCDTTSTPLWRNGPRGPKSLCNACGARFKKEERRTTAATGNT | – | 5000 | –
AtSPL5 ZnF domain (residues 60-124), Q9S758 S108A (protein) SRLCQVDRCTVNLTEAKQYYRRHRVCEVHAKASAATVAGVRQRFCQQCARFHELPEFDEAKRSCR | – | 1400 | –
